In assay [1] the target is amylin receptor (nucleus accumbens membranes prepared from rat brain) (rat, UniProt P32214 25-516). Briefly: radioligand displacement, 125I-rat amylin, rat nucleus accumbens membranes. Here is the method: Male Sprague-Dawley® rats (200-250) grams were sacrificed by decapitation. Brains were removed and place in cold phosphate-buffered saline (PBS). From the ventral surface, cuts were made rostral to the hypothalamus, bounded laterally by the olfactory tracts and extending at a 45° angle medially from these tracts. This basal forebrain tissue, containing the nucleus accumbens and surrounding regions, was weighed and homogenized in ice-cold 20 mM HEPES buffer (20 mM HEPES acid, pH adjusted to 7.4 with NaOH at 23° C.). Membranes were washed three times in fresh buffer by centrifugation for 15 minutes at 48,000×g. The final membrane pellet was resuspended in 20 mM HEPES buffer containing 0.2 mM phenylmethylsulfonyl fluoride (PMSF).
(§1) Solutions were incubated for 60 minutes at 2 C. […] Filters were washed immediately before filtration with 5 ml cold PBS, and immediately after filtration with 15 ml cold PBS. […] Competition curves were generated by measuring binding in the presence of 10⁻¹² to 10⁻⁶ M unlabeled test compound and were analyzed by nonlinear regression using a 4-parameter logistic equation (INPLOT program; […] Software, San Diego, Calif.).
A general note: Displacement assays read how much labelled ligand stays bound in the presence of the test substance.

The target of assay [2] is T1, CGRP receptor (membranes prepared from SK-N-MC cells) (UniProt Q16602 23-461; O60894 27-148, limits assumed).
T1 construct: whole, on cells; Endogenous receptor in SK-N-MC cell membranes; also called CGRP receptors; CGRP RBA
The assay can be described thus: radioligand displacement, 125I-hCGRP, SK-N-MC cell membranes. Here is the method:
as §1

The target of assay [3] is T2, adrenomedullin receptor (receptor binding assay).
T2 chain 1: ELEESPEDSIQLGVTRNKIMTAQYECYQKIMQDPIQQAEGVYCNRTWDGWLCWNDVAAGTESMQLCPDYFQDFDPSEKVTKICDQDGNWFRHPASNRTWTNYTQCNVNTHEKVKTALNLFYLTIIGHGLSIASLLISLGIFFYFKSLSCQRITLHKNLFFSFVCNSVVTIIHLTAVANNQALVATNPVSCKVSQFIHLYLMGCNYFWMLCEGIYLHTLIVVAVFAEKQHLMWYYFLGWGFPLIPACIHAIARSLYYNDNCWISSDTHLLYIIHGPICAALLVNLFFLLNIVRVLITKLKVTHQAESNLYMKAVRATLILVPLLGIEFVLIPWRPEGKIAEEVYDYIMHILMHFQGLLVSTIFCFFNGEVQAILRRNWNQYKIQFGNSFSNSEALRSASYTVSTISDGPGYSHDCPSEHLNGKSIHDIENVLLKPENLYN
T2 chain 2: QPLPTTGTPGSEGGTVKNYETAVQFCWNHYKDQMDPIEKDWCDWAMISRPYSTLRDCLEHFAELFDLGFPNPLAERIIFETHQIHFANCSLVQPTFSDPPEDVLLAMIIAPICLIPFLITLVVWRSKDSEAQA
Briefly: adrenomedullin receptor binding assay, method not described.

Assay [4] deals with T3, calcitonin receptor (receptor binding assay).
T3 construct: also called rCalcitonin RBA; CT
Briefly: calcitonin receptor binding assay, method not described.

Assay [5] deals with calcitonin receptor of CHO cells. Briefly: cell-based or functional assay.

Ends that are not written are not given here.

Data on 25 molecules can be found in patent publication US20080207501A1 (AMYLIN PHARMACEUTICALS, published 2008).

What is called IC50 is the concentration needed to halve the response being measured.

Chain of amylin receptor (nucleus accumbens membranes prepared from rat brain) (P32214 25-516): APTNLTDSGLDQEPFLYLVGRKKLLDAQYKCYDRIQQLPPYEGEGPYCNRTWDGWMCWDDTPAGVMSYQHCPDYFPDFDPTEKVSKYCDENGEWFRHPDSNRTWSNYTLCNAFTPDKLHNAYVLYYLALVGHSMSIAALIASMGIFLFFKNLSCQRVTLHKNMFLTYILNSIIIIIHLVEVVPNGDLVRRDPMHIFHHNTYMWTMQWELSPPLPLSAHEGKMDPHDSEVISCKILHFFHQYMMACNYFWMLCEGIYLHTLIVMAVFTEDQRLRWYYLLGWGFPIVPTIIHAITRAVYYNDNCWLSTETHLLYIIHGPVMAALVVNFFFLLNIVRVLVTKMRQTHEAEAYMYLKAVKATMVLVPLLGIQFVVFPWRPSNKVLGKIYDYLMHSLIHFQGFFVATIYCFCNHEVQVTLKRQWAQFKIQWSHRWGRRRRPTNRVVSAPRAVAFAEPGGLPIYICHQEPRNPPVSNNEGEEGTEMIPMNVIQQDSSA
T1 sequence (O60894 27-148 limits assumed, chain 2 of 2, one chain of several): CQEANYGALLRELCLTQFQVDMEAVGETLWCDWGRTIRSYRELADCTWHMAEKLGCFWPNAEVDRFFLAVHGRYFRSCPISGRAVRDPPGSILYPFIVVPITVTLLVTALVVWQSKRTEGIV

As to TQAQLLRVGCVLGTCQVQNLSHRLWQLDSAPVDPSSPHSY-NH2 (ends and bridges not checked) [AFP-6 analog SEQ ID NO: 17], the IC50 in assay [1] was found to be 209 nM; in assay [2], 10.5 nM; in assay [3] it was 304 nM.
Consider VQNLSHRLWQLMGPAGRQDSAPVDPSSPHSY-NH2 [AFP-6 analog SEQ ID NO: 14], for which, in assay [3], the IC50 stood at 59 nM.
Regarding TQAQLLRVGCNTATCQVQNLSHRLWQLMGPAGRQDSAPVDPSSPHSY-NH2 (ends and bridges not checked) [AFP-6 analog SEQ ID NO: 21], the IC50 in assay [1] amounted to 8.3 nM; in assay [2] it was 8.5 nM; in assay [3] it was 47 nM; in assay [4], 17 nM.
For TQAQLLRVGCVLGTCQVQNLSHRLWQLMGPAGRQESAPVEPSSPHSY-NH2 (ends and bridges not checked) [AFP-6 analog SEQ ID NO: 32] the same measures were 16 nM, 2.3 nM, 7.1 nM and 1000 nM.
On to TQAQLLRVGMVLGTMQVQNLSHRLWQLMGPAGRQDSAPVDPSSPHSY-NH2 [AFP-6 analog SEQ ID NO: 25], for which the IC50 in assay [1] was found to be 139 nM; in assay [2] it was 80 nM; in assay [3], 120 nM.
Consider GCVLGTCQVQNLSHRLWQLRQESAPVEPSSPHSY-NH2 (ends and bridges not checked) [AFP-6 analog SEQ ID NO: 40], for which, in assay [3], the IC50 stood at 1000 nM.
As to CVLGTCQVQNLSHRLWQLRQESAPVEPSSPHSY-NH2 (ends and bridges not checked) [AFP-6 analog SEQ ID NO: 19], the IC50 in assay [1] stood at 29 nM; in assay [2], 12.7 nM; in assay [3] it was 1000 nM; in assay [4], 247 nM.
For KCNTATCATQRLANFLVRSSNNLGPVLPPTNVGSNTY (peptide, UniProt P12969 38-74, looked up) [rat amylin], in assay [5], the “EC50, cAMP (AlphaScreen), CHO cells, Average” value was 24 nM; the “EC50, cAMP (AlphaScreen), CHO cells, Experiment 1” value worked out at 21.6 nM; the “EC50, cAMP (AlphaScreen), CHO cells, Experiment 2” value was determined as 30.9 nM; the “EC50, cAMP (AlphaScreen), CHO cells, Experiment 3” value was determined as 19.6 nM.
With GCVLGTCQVQNLSHRLWQLMGPAGRQDSAPVDPSSPHSY-NH2 (ends and bridges not checked) [AFP-6 analog SEQ ID NO: 11], the IC50 in assay [1] was determined as 7.7 nM; in assay [2], 0.93 nM; in assay [3] it was 11 nM; in assay [4], 27 nM.
Turning to GMVLGTMQVQNLSHRLWQLMGPAGRQDSAPVDPSSPHSY-NH2 [AFP-6 analog SEQ ID NO: 26], the IC50 came out at 48 nM in assay [1], 26 nM in assay [2] and 37 nM in assay [3].
Regarding TQAQLLRVGCVLGTCQVQNLSHRLWQLRQDSAPVDPSSPHSY-NH2 (ends and bridges not checked) [AFP-6 analog SEQ ID NO: 16], the IC50 in assay [1] was determined as 21 nM; in assay [2] it was 1.5 nM; in assay [3], 1000 nM; in assay [4], 22 nM.
In the same order, the values of GCNTATCQVQNLSHRLWQLRQDSAPVDPSSPHSY-NH2 (ends and bridges not checked) [AFP-6 analog SEQ ID NO: 31] are 12 nM, 18 nM, 1000 nM and 51 nM.
For the molecule GCNTATCQVQNLSHRLWQLRQDSAPVEPSSPHSY-NH2 (ends and bridges not checked) [AFP-6 analog SEQ ID NO: 37], the IC50 in assay [1] amounted to 39 nM; in assay [2], 130 nM; in assay [3], 1000 nM; in assay [4], 121 nM.
For VCNTATCQVQNLSHRLWQLRQDSAPVDPSSPHSY-NH2 (ends and bridges not checked) [AFP-6 analog SEQ ID NO: 30] the same measures were 19 nM, 37 nM, 1000 nM and 128 nM.
In the case of VGCVLGTCQVQNLSHRLWQLMGPAGRQDSAPVDPSSPHSY-NH2 (not fully specified; ends and bridges not checked) [Human AFP-6 [8-47]], the IC50 in assay [1] amounted to 12 nM; in assay [3], 6.4 nM; in assay [4], 24 nM.
Regarding VGCVLGTCQVQNLSHRLWQLMGPAGRQDSAPVEPSSPHSY-NH2 (ends and bridges not checked) [AFP-6 analog SEQ ID NO: 35], the IC50 is 17 nM in assay [1], 4.7 nM in assay [2], 37 nM in assay [3] and 153 nM in assay [4].
For VGCVLGTCQVQNLSHRLWQLRQDSAPVDPSSPHSY-NH2 (ends and bridges not checked) [AFP-6 analog SEQ ID NO: 18] the same measures were 18 nM, 3.6 nM, 1000 nM and 24 nM.
In the same order, the values of VGCVLGTCQVQNLSHRLWQLRQDSAPVEPSSPHSY-NH2 (ends and bridges not checked) [AFP-6 analog SEQ ID NO: 36] are 39 nM, 14 nM, 1000 nM and 198 nM.
In assay [3], VGMVLGTMQVQNLSHRLWQLRQDSAPVDPSSPHSY-NH2 [AFP-6 analog SEQ ID NO: 27] gave a concentration for half-maximal inhibition (IC50) of 1000 nM.
Turning to GCSNLSTCQVQNLSHRLWQLRQDSAPVEPSSPHSY-NH2 (ends and bridges not checked) [AFP-6 analog SEQ ID NO: 38], the figures for the half-inhibitory concentration (IC50) in assay [1], in assay [2] and in assay [4] were 9.9 nM, 208 nM and 17 nM, respectively.
With GCGNLSTCQVQNLSHRLWQLRQDSAPVEPSSPHSY-NH2 (ends and bridges not checked) [AFP-6 analog SEQ ID NO: 39], the results for the IC50 in assay [1], in assay [3] and in assay [4] were 14 nM, 1000 nM and 31 nM, respectively.
Consider VGCGNLSTCQVQNLSHRLWQLRQDSAPVDPSSPHSY-NH2 (ends and bridges not checked) [AFP-6 analog SEQ ID NO: 29], for which the IC50 in assay [1] was 7.5 nM; in assay [2], 111 nM; in assay [3] it was 1000 nM; in assay [4] it was 9 nM.
CVLGTCQVQNLSHRLWQLMGPAGRQDSAPVDPSSPHSY-NH2 (ends and bridges not checked) [AFP-6 analog SEQ ID NO: 12]: the IC50 in assay [1] worked out at 9.8 nM; in assay [2], 2.2 nM; in assay [3] it was 18 nM; in assay [4] it was 198 nM.
For TQAQLLRVGCSNLSTCQVQNLSHRLWQLMGPAGRQDSAPVDPSSPHSY-NH2 (ends and bridges not checked) [AFP-6 analog SEQ ID NO: 20], the IC50 in assay [1] turned out to be 1.9 nM; in assay [2] it was 25 nM; in assay [3], 36 nM; in assay [4] it was 16 nM.
As for RVGCVLGTCQVQNLSHRLWQLMGPAGRQDSAPVDPSSPHSY-NH2 (ends and bridges not checked) [AFP-6 analog SEQ ID NO: 10], the IC50 worked out at 5.1 nM in assay [1], 1.4 nM in assay [2], 7.1 nM in assay [3] and 55 nM in assay [4].
